Key:
[1] = target: T1, CXCR4 (Homo sapiens, UniProt P61073); assay: Radioligand displacement of 125I-CXCL12 from CXCR4 membrane preparations; assay type: binding; details: relative to CXCL12WT
T1 construct: purchased Millipore
Method: Radioligand displacement. Commercial membrane preparations of cells stably expressing CXCR4 or CXCR7 were purchased (Millipore). Five micrograms of protein per point was incubated for 90 min on ice in binding buffer with 0.03 nM of […] as a tracer and increasing concentrations of competitor in a final 40 μL volume. Bound radioactivity was separated from free ligand by filtration, and receptor-bound radioactivity was quantified by gamma-radiation counting (Perkin-ECXCL121er Life and Analytical Sciences). Isolated membrane binding experiments were carried out in duplicate.

[2] = target: T1, CXCR4; assay: CXCR4 internalization assay in HeLa cells; assay type: cell-based; details: 80 ng/ml, 20 min, FACS surface expression
Method: CXCR4 internalization assay. HeLa cells grown on 6-cm dishes were washed twice with PBS and detached from the surface of the plate by incubating with 350 μl Cellstripper cell dissociation solution (Mediatech, Va.) for 10 min at 37° C. Cells were collected in 4 ml PBS containing 0.1% BSA (Media Tech, Va.) by centrifugation. Cell pellets were re-suspended in 1.5 ml PBS-0.1% BSA and 5×10^5 cells were transferred to a fresh 5 ml polystyrene round bottom tube (BD falcon) and washed once with PBS+0.1% BSA and re-suspended in 250 μl PBS-0.1% BSA. […] Following treatment, 4 mL cold PBS was added to each tube, cells were collected by centrifugation and then fixed by re-suspending the pellet in 500 μl 4% paraformaldehyde (made in PBS) and incubating for 15 min at 37° C. Cells were collected by centrifugation and washed once with 4 mL PBS and then twice with PBS-0.1% BSA. […] CXCR4 surface expression was analyzed by flow cytometry (FACS-CANTO; Becton Dickinson) and analysis was performed using FlowJo v.9.3 software.
CXCR4 internalization assay. […] CXCR4 surface expression was analyzed by flow cytometry (FACS-CANTO; Becton Dickinson) and analysis was performed using FlowJo v.9.3 software.

T1 sequence (P61073 whole entry): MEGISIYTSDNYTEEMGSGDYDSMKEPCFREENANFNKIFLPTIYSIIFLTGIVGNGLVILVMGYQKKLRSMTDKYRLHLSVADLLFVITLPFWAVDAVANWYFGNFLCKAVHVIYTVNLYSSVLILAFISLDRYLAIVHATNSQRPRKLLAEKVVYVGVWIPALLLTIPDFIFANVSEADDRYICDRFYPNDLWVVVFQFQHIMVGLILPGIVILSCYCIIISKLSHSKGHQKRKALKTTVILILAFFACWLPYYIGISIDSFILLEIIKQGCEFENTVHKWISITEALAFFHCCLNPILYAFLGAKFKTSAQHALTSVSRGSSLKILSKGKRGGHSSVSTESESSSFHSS

CXCL122: constitutively dimeric variant of CXCL12 containing L36C/A65C mutations
recognition of the full-length receptor in comparison to CXCL12WT [1]: six-times weaker | CXCR4 internalization [2]: nominal internalization

Source: US11369662B2 (The Medical College of Wisconsin, Inc., priority 2014, dated 2022)
